Source: the RNAGym collection of RNA variant scans (doi:10.1093/molbev/msab373)

B1: Azoarcus group I ribozyme (parent)
chain: GUGCCUUGCGCCGGGAAACCACGCAAGGGAUGGUGUCAAAUUCGGCGAAACCUAAGCGCCCGCCCGGGCGUAUGGCAACGCCGAGCCAAGCUUCGGCGCCUGCGCCGAUGAAGGUGUAGAGACUAGACGGCACCCACCUAAGGCAAACGCUAUGGUGAAGGCAUAGUCCAGGGAGUGGCGAAAGUCACACAAACCGG

Variants of: B1
Assay: reverse-splicing fitness (ratio to wild type); higher = more active; in vitro selection; Mg2+ level not given
In short: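 An in vitro group I ribozyme library with randomized positions was T7-transcribed and gel-purified. In triplicate, 10 pmol RNA in EPPS pH 7.5 was reacted with 50 pmoles of a 30-nt RNA substrate for 1 h at 37 °C across several added MgCl2 levels (1–48 mM), then stopped with EDTA. Products were reverse transcribed from a substrate-complementary primer, PCR-amplified and sequenced (HiSeq 4000). Fitness is a variant's read proportion after selection over that before, normalised to wild type.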
C82U A111C A120G C150U C169A U176G gave a reverse-splicing fitness of 0.00479.
C82U A111C A120G A145U C150U C169G U176C showed a reverse-splicing fitness of 0.0111.
In the case of C82U A111C A120G A145U C150U C169G U176A, the reverse-splicing fitness is reported as 0.00992.
C82U A111C A120G A145U C150U C169G U176G gave a reverse-splicing fitness of 0.00453.
C82U A111C A120G A145C U176C gave a reverse-splicing fitness of 0.0128.
Work on C82U A111C A120G A145C U176A yielded a reverse-splicing fitness of 0.0119.
C82U A111C A120G A145C U176G gave a reverse-splicing fitness of 0.00386.
Work on C82U A111C A120G A145G C150G C169G U176C yielded a reverse-splicing fitness of 0.0114.
C82U A111C A120G A145G C150G C169G U176G showed a reverse-splicing fitness of 0.00526.
With C82U A111C A120G A145G C150G C169G U176A the reverse-splicing fitness was 0.00921.
With C82U A111C A120C C150G C169U U176A the reverse-splicing fitness was 0.00808.
In the case of C82U A111C A120C C150G C169U U176C, the reverse-splicing fitness is reported as 0.0134.
For C82U A111C A120C C150G C169U U176G, the reverse-splicing fitness was 0.00565.
Variant C82U A111C A120G C150U C169U U176A has a reverse-splicing fitness of 0.017.
C82U A111C A120G C150U C169U U176G showed a reverse-splicing fitness of 0.00513.
C82U A111C A120G C150U C169U U176C gave a reverse-splicing fitness of 0.014.
For C82U A111C A120C C169G U176A, the reverse-splicing fitness was 0.0173.
C82U A111C A120C C169G U176G gave a reverse-splicing fitness of 0.00563.
C82U A111C A120C C169G U176C gave a reverse-splicing fitness of 0.0186.
With C82U A111C A120G A145C C150U C169U the reverse-splicing fitness was 0.00593.
Work on C82U A111C A120G A145C C150U C169G yielded a reverse-splicing fitness of 0.00662.
C82U A111C A120G A145C C150U C169A showed a reverse-splicing fitness of 0.00786.
Variant C82U A111C A120G A145G C150G C169U U176G has a reverse-splicing fitness of 0.00643.
C82U A111C A120G A145G C150G C169U U176A showed a reverse-splicing fitness of 0.0116.
With C82U A111C A120G A145G C150G C169U U176C the reverse-splicing fitness was 0.0104.
With C82U A111C A120G C150G C169U U176G the reverse-splicing fitness was 0.00505.
Variant C82U A111C A120G C150G C169U U176C has a reverse-splicing fitness of 0.0121.
Variant C82U A111C A120G C150G C169U U176A has a reverse-splicing fitness of 0.00853.
Variant C82U A111C A120G A145G C150U U176A has a reverse-splicing fitness of 0.00886.
For C82U A111C A120G A145G C150U U176C, the reverse-splicing fitness was 0.0169.
In the case of C82U A111C A120G A145G C150U U176G, the reverse-splicing fitness is reported as 0.00547.
Variant C82U A111C A120G A145U C150G U176G has a reverse-splicing fitness of 0.00282.
Variant C82U A111C A120G A145U C150G U176A has a reverse-splicing fitness of 0.00768.
C82U A111C A120G A145U C150G U176C gave a reverse-splicing fitness of 0.0141.
Variant C82U A111C A120G C169A U176C has a reverse-splicing fitness of 0.019.
With C82U A111C A120G C169A U176G the reverse-splicing fitness was 0.00418.
C82U A111C A120G C169A U176A gave a reverse-splicing fitness of 0.0141.
C82U A111C A120G A145G C150G C169A U176A showed a reverse-splicing fitness of 0.0117.
C82U A111C A120G A145G C150G C169A U176G showed a reverse-splicing fitness of 0.00775.
In the case of C82U A111C A120G A145G C150G C169A U176C, the reverse-splicing fitness is reported as 0.011.
In the case of C82U A111C A120G A145U C150G C169A U176A, the reverse-splicing fitness is reported as 0.0108.
C82U A111C A120G A145U C150G C169A U176G showed a reverse-splicing fitness of 0.00541.
In the case of C82U A111C A120G A145U C150G C169A U176C, the reverse-splicing fitness is reported as 0.00893.
For C82U A111C A120G C150G C169A U176G, the reverse-splicing fitness was 0.0058.
C82U A111C A120G C150G C169A U176A gave a reverse-splicing fitness of 0.0104.
C82U A111C A120G C150G C169A U176C showed a reverse-splicing fitness of 0.00939.
C82U A111C A120G C150A C169U U176G showed a reverse-splicing fitness of 0.00544.
With C82U A111C A120G C150A C169U U176A the reverse-splicing fitness was 0.0192.
C82U A111C A120G C150A C169U U176C gave a reverse-splicing fitness of 0.0146.
C82U A111C A120G A145G C150A C169G gave a reverse-splicing fitness of 0.00809.
Work on C82U A111C A120G A145G C150A C169U yielded a reverse-splicing fitness of 0.00786.
Variant C82U A111C A120G A145G C150A C169A has a reverse-splicing fitness of 0.00989.
C82U A111C A120C C169A U176G gave a reverse-splicing fitness of 0.00546.
C82U A111C A120C C169A U176A gave a reverse-splicing fitness of 0.016.
With C82U A111C A120C C169A U176C the reverse-splicing fitness was 0.0189.
With C82U A111C A120G A145G C150U C169G U176C the reverse-splicing fitness was 0.0159.
For C82U A111C A120G A145G C150U C169G U176G, the reverse-splicing fitness was 0.00467.
Work on C82U A111C A120G A145G C150U C169G U176A yielded a reverse-splicing fitness of 0.0112.
C82U A111C A120G A145U C150A C169U U176C showed a reverse-splicing fitness of 0.0106.
With C82U A111C A120G A145U C150A C169U U176G the reverse-splicing fitness was 0.00435.
For C82U A111C A120G A145U C150A C169U U176A, the reverse-splicing fitness was 0.0157.
In the case of C82U A111C A120G A145C C150G C169U U176G, the reverse-splicing fitness is reported as 0.0039.
Work on C82U A111C A120G A145C C150G C169U U176A yielded a reverse-splicing fitness of 0.00949.
C82U A111C A120G A145C C150G C169U U176C showed a reverse-splicing fitness of 0.00897.
Work on C82U A111C A120G A145U C169A U176G yielded a reverse-splicing fitness of 0.00418.
C82U A111C A120G A145U C169A U176C gave a reverse-splicing fitness of 0.01.
With C82U A111C A120G A145U C169A U176A the reverse-splicing fitness was 0.00825.
In the case of C82U A111C A120C A145U C169A U176G, the reverse-splicing fitness is reported as 0.00532.
For C82U A111C A120C A145U C169A U176A, the reverse-splicing fitness was 0.0107.
In the case of C82U A111C A120C A145U C169A U176C, the reverse-splicing fitness is reported as 0.0103.
C82U A111C A120G C150A C169G showed a reverse-splicing fitness of 0.00808.
Variant C82U A111C A120G C150A C169U has a reverse-splicing fitness of 0.00789.
In the case of C82U A111C A120G C150A C169A, the reverse-splicing fitness is reported as 0.0101.
With C82U A111C A120G C169G U176G the reverse-splicing fitness was 0.00413.
C82U A111C A120G C169G U176A gave a reverse-splicing fitness of 0.0161.
Work on C82U A111C A120G C169G U176C yielded a reverse-splicing fitness of 0.0209.
C82U A111C A120G C169G gave a reverse-splicing fitness of 0.0104.
In the case of C82U A111C A120G C169A, the reverse-splicing fitness is reported as 0.00844.
C82U A111C A120G C169U showed a reverse-splicing fitness of 0.0077.
C82U A111C A120C C150G U176G showed a reverse-splicing fitness of 0.00336.
In the case of C82U A111C A120C C150G U176C, the reverse-splicing fitness is reported as 0.00787.
Work on C82U A111C A120C C150G U176A yielded a reverse-splicing fitness of 0.00528.
Variant C82U A111C A120G A145G C150G U176G has a reverse-splicing fitness of 0.00607.
For C82U A111C A120G A145G C150G U176A, the reverse-splicing fitness was 0.00693.
